The labels stand for the following.
B1: MBP-Agno (17–71) (domain or fragment)
chain: TWSGTKKRAQRILIFLLEFLLDFCTGEDSVDGKKRQRHSGLTEQTYSALPEPKAT
B2: MBP-Agno Ala(34–36) (natural protein)
chain: MVLRQLSRKASVKVSKTWSGTKKRAQRILIFLLAAALDFCTGEDSVDGKKRQRHSGLTEQTYSALPEPKAT

This data set concerns the molecule itself. Briefly: SDS-PAGE of SDS-resistant dimers and oligomers.
ILIFLLEFLLDFCTGEDSVDGKKRQRHSGLTEQTYSALPEPKAT (domain or fragment) [MBP-Agno (28–71)]: the binding result is recorded as “binds”.
Consider B1, for which the binding result was “binds”.
The same measure for B2: “binds”; for AQRILIFLLEFLLDFCTGEDSVDGKKRQRHSGLTEQTYSALPEPKAT (domain or fragment) [MBP-Agno (25–71)]: “binds”.

The values are drawn from article PMC3777628 (Virology, 2013).
